Reference: the supplement of paper PMC10126150
± gives the standard deviation of the averaged measurements.

Tested on: ATP
Test: switch fluorescence ratio, 500 uM ATP over buffer (Cy3 cluster intensity, sum of 5 cycles each) (fold (ratio)); higher = stronger signal-on switching upon ATP binding; sequences stand for … in TCGTCGGCAGCGTCAGATGTGTATAAGAGACAGTTTTTTTTTTTTTTTTTTTTTTTTT…TC
Conditions: aptamer strand: ATP DNA aptamer (quencher-CACCTGGGGGAGTATTGCGGAGGAAGG + anchor), 100 nM annealed; ATP concentration: 500 uM
Summary of the method: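 The quencher-labelled ATP aptamer, at 100 nM, was annealed to Cy3-labelled switching-strand clusters on a modified Illumina MiSeq flow-cell. The clusters were imaged in selection buffer, then after 15 min with 500 uM ATP at 22 °C, and this buffer/ATP cycle ran five times with NaOH stripping and re-annealing between runs. Per-cluster fluorescence ratios, summed target-cycle over summed buffer-cycle Cy3 intensity, were averaged per switch-domain sequence. Clusters outside 100-1000 RFU were excluded.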
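Note: ATP exposure 15 min at 22 °C before imaging.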

Sequence | switch fluorescence ratio
TTTGTTAAG | 1.02 ± 0.018
TTTGTTAGAT | 0.993 ± 0.022
TTTGTTAGGT | 1 ± 0.031
TTTGTTATAT | 0.9839 ± 0.0039
TTTGTTCGGA | 0.9795 ± 0.0059
TTTGTTGAAA | 1.02 ± 0.018
TTTGTTGAGC | 1.44 ± 0.66
TTTGTTGAGT | 1 ± 0.026
TTTGTTGATA | 0.983 ± 0.032
TTTGTTGGTG | 1 ± 0.029
TTTGTTTAAA | 0.974 ± 0.027
TTTGTTTAAG | 0.973 ± 0.012
TTTGTTTCAC | 1.04 ± 0.043
TTTGTTTGCA | 1.01 ± 0.054
TTTGTTTGTA | 1.01 ± 0.017
TTTGTTTTAG | 0.983 ± 0.031
TTTGTTTTAT | 1 ± 0.034
TTTGTTTTTT | 0.994 ± 0.03
TTTTAAAACT | 1.05 ± 0.039
TTTTAAACAG | 1.028 ± 0.0066
TTTTAAAGGA | 1 ± 0.023
TTTTAAAGGC | 1.02 ± 0.031
TTTTAAATAG | 1.01 ± 0.024
TTTTAACACT | 1.035 ± 0.0085
TTTTAACCGG | 0.974 ± 0.025

Sequence | switch fluorescence ratio
TTTTAACCTA | 1.01 ± 0.019
TTTTAACGGA | 1.03 ± 0.041
TTTTAAGAAA | 3.11 ± 3
TTTTAAGAGT | 0.992 ± 0.028
TTTTAAGATT | 0.999 ± 0.047
TTTTAAGCAA | 1.53 ± 0.17
TTTTAAGCCG | 1.01 ± 0.069
TTTTAAGGAT | 1 ± 0.024
TTTTAAGGGG | 1.02 ± 0.046
TTTTAAGTCG | 1.05 ± 0.014
TTTTAAGTGC | 1 ± 0.027
TTTTAATCAG | 0.9842 ± 0.0036
TTTTAATGGT | 1.02 ± 0.03
TTTTAATTAT | 1.05 ± 0.026
TTTTAATTG | 0.961 ± 0.038
TTTTAATTTA | 1.03 ± 0.043
TTTTACAAGT | 0.982 ± 0.03
TTTTACAATT | 0.9885 ± 0.0015
TTTTACAGCC | 1.052 ± 0.0051
TTTTACCAG | 1.02 ± 0.051
TTTTACCGAT | 1.01 ± 0.034
TTTTACCGT | 0.996 ± 0.012
TTTTACCTAT | 1.04 ± 0.021
TTTTACGTCA | 1.21 ± 0.073
TTTTACTGAT | 1.02 ± 0.026

Sequence | switch fluorescence ratio
TTTTACTTGG | 0.993 ± 0.015
TTTTACTTTT | 1.01 ± 0.037
TTTTAGAGAG | 0.997 ± 0.019
TTTTAGAGCG | 1.02 ± 0.025
TTTTAGAGGA | 0.9736 ± 0.0013
TTTTAGATTT | 0.995 ± 0.026
TTTTAGGATG | 0.996 ± 0.025
TTTTAGGCAT | 1.01 ± 0.031
TTTTAGGGGA | 1.01 ± 0.025
TTTTAGGGGT | 1.02 ± 0.046
TTTTAGGTCA | 0.9901 ± 0.0063
TTTTAGTCGT | 0.991 ± 0.02
TTTTAGTGCC | 1.01 ± 0.04
TTTTAGTGTT | 1 ± 0.013
TTTTAGTTAG | 1.03 ± 0.058
TTTTATATGG | 0.986 ± 0.021
TTTTATCGAG | 0.9893 ± 0.0093
TTTTATCGGT | 0.979 ± 0.012
TTTTATCTTT | 1 ± 0.015
TTTTATGAG | 0.999 ± 0.031
TTTTATGCGG | 0.974 ± 0.019
TTTTATGCGT | 0.993 ± 0.033
TTTTATGGCT | 0.982 ± 0.04
TTTTATGGGA | 0.9849 ± 0.0032
TTTTATGTAA | 0.996 ± 0.032

Sequence | switch fluorescence ratio
TTTTATGTCT | 0.976 ± 0.03
TTTTATGTG | 1.01 ± 0.021
TTTTATGTTA | 0.977 ± 0.032
TTTTATTGCA | 0.96835 ± 0.00073
TTTTATTGGT | 0.9738 ± 0.0075
TTTTATTTGT | 0.985 ± 0.0089
TTTTCAACTA | 0.9949 ± 0.0024
TTTTCACTTT | 1.01 ± 0.046
TTTTCAGAAG | 0.997 ± 0.013
TTTTCAGATT | 0.9601 ± 0.0086
TTTTCAGGAA | 1.018 ± 0.0092
TTTTCAGGGT | 1.01 ± 0.025
TTTTCAGTTG | 1.002 ± 0.0029
TTTTCATGCC | 1.09 ± 0.056
TTTTCATTCG | 1 ± 0.033
TTTTCATTTC | 1.01 ± 0.012
TTTTCCCCCT | 1.081 ± 0.0069
TTTTCCCCTC | 1.64 ± 1
TTTTCCCGGA | 1.013 ± 0.0028
TTTTCCGGCC | 1.72 ± 0.54
TTTTCCGTGG | 1.01 ± 0.069
TTTTCCTAAA | 1.06 ± 0.11
TTTTCCTAAC | 0.999 ± 0.071
TTTTCCTAGA | 1.004 ± 0.0057
TTTTCCTAGT | 1.12 ± 0.073

Sequence | switch fluorescence ratio
TTTTCCTGAG | 1.04 ± 0.035
TTTTCCTTGT | 1.08 ± 0.13
TTTTCGACGA | 1.27 ± 0.3
TTTTCGCTTT | 1.09 ± 0.17
TTTTCGGGTA | 1.02 ± 0.0091
TTTTCGTCAA | 2.86 ± 2.4
TTTTCGTCTC | 1.02 ± 0.019
TTTTCGTGAA | 1.01 ± 0.021
TTTTCGTGGT | 0.984 ± 0.017
TTTTCGTTTG | 1 ± 0.074
TTTTCTAAAT | 1.04 ± 0.076
TTTTCTAGGG | 1.01 ± 0.017
TTTTCTATCT | 1.06 ± 0.057
TTTTCTATGG | 1 ± 0.082
TTTTCTGGAA | 1.01 ± 0.029
TTTTCTGTAT | 1.03 ± 0.052
TTTTGAACGA | 1.01 ± 0.035
TTTTGAAGAT | 1.009 ± 0.01
TTTTGAAGGA | 1.01 ± 0.027
TTTTGAAGTA | 1.0186 ± 0.00093
TTTTGAATGG | 1.02 ± 0.04
TTTTGAATTA | 1.01 ± 0.032
TTTTGAGGCT | 1.01 ± 0.073
TTTTGAGTAG | 0.987 ± 0.021
TTTTGATCTT | 0.991 ± 0.012

Sequence | switch fluorescence ratio
TTTTGATGCT | 0.998 ± 0.057
TTTTGATGGG | 0.981 ± 0.055
TTTTGATTGA | 1.03 ± 0.034
TTTTGCAGCT | 1 ± 0.019
TTTTGCATAT | 1.26 ± 0.42
TTTTGCCATT | 0.999 ± 0.035
TTTTGCCTAT | 1 ± 0.025
TTTTGCGAAG | 1.03 ± 0.027
TTTTGCTGCC | 1.027 ± 0.002
TTTTGCTGGT | 1 ± 0.027
TTTTGGAAAG | 0.987 ± 0.013
TTTTGGACTC | 1.007 ± 0.006
TTTTGGCCGG | 1.05 ± 0.035
TTTTGGCGCG | 1 ± 0.061
TTTTGGCTTT | 1 ± 0.034
TTTTGGGAGT | 1 ± 0.026
TTTTGGGCAT | 1.04 ± 0.11
TTTTGGGGAA | 1 ± 0.024
TTTTGGGGCC | 1 ± 0.032
TTTTGGGGCG | 1.04 ± 0.055
TTTTGGGTAA | 1.01 ± 0.0051
TTTTGGTGTT | 1.02 ± 0.036
TTTTGTAGGG | 0.969 ± 0.041
TTTTGTAGTG | 0.988 ± 0.042
TTTTGTGAGG | 1.04 ± 0.044

Sequence | switch fluorescence ratio
TTTTGTGGG | 0.966 ± 0.046
TTTTGTGGGT | 0.986 ± 0.022
TTTTGTTACC | 1.02 ± 0.018
TTTTGTTCAC | 1.01 ± 0.017
TTTTGTTGAG | 1 ± 0.035
TTTTGTTGGC | 1.04 ± 0.035
TTTTGTTTA | 0.984 ± 0.022
TTTTTAAAGG | 0.976 ± 0.013
TTTTTAACGT | 1.02 ± 0.027
TTTTTAAGCG | 1 ± 0.023
TTTTTAATAC | 1.33 ± 0.29
TTTTTAATAG | 0.9855 ± 0.002
TTTTTAATTC | 1.03 ± 0.024
TTTTTACAGT | 1.02 ± 0.048
TTTTTACCGT | 1.12 ± 0.088
TTTTTACGGT | 1.1 ± 0.15
TTTTTAGCTG | 1.04 ± 0.058
TTTTTAGGC | 1.01 ± 0.078
TTTTTAGGCC | 0.999 ± 0.016
TTTTTAGGGA | 0.99 ± 0.029
TTTTTAGTCC | 1 ± 0.023
TTTTTAGTGG | 0.981 ± 0.015
TTTTTATAAG | 0.994 ± 0.019
TTTTTATAAT | 1.01 ± 0.026
TTTTTATATA | 0.997 ± 0.016

Sequence | switch fluorescence ratio
TTTTTATCGT | 1.02 ± 0.017
TTTTTATCTA | 1.01 ± 0.036
TTTTTATGAA | 1.011 ± 0.0019
TTTTTATGCT | 0.99 ± 0.035
TTTTTATTCG | 0.994 ± 0.019
TTTTTCAAGG | 1.01 ± 0.013
TTTTTCAATA | 1.01 ± 0.023
TTTTTCAATT | 0.982 ± 0.017
TTTTTCACCG | 1.07 ± 0.079
TTTTTCACTT | 1 ± 0.036
TTTTTCAGAT | 1.03 ± 0.055
TTTTTCAGTA | 0.981 ± 0.016
TTTTTCATGT | 0.997 ± 0.044
TTTTTCCGAG | 1.08 ± 0.025
TTTTTCCGCA | 2.18 ± 0.83
TTTTTCCGGT | 1.07 ± 0.13
TTTTTCCGTG | 0.9819 ± 0.0037
TTTTTCGGCC | 0.979 ± 0.026
TTTTTCTACG | 1.2 ± 0.28
TTTTTCTGCT | 0.9786 ± 0.0051
TTTTTCTTCA | 1 ± 0.011
TTTTTGAAT | 1.01 ± 0.021
TTTTTGACC | 1.008 ± 0.0017
TTTTTGAGCA | 1.05 ± 0.049
TTTTTGAT | 0.972 ± 0.022
